Source: patent publication CN111690063A (UNIV BEIJING, dated 2020)

Assays:
[1] = target: T1, 粒细胞-巨噬细胞集落刺激因子 (human granulocyte-macrophage colony-stimulating factor, GM-CSF) (human, UniProt P04141 18-144); assay: Not stated at this place (summary of advantages); conflicts with the value in Example 4
T1 construct: also called GM-CSF蛋白

[2] = target: T1, 粒细胞-巨噬细胞集落刺激因子 (human …); assay: Biolayer interferometry type assay: GM-CSF loaded on SA sensor, nanobody at 1000, 500 and 250 nmol, 30℃

T1 sequence (P04141 18-144 limits assumed): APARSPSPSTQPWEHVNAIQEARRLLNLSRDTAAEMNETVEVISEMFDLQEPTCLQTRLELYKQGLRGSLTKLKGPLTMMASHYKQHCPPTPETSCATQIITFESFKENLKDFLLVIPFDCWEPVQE

B1: 抗GM-CSF纳米抗体G1 (VHH)
VHH: QLQLVESGGGLVQAGGSLRLSCAVSGRPSNVYDMGWFRRVPGKESRLMAYINWSRGSTYYADSVKGRFTISRDNTNNTVYLQMNSLKPEDTAVYYCAARAGPGTPAYNSWGQGTQVTVSS
notes: Alpaca VHH picked from an immune phage library
In the case of B1, the Kd [1] is reported as 29.5 nM and the Kd [2] is reported as 93.7 nM.
